Test results as given in publication PMC12069319, “Transcriptional co-regulator OCA-B/Pou2af1 restricts Th2 differentiation”.

Molecular target: Oct1 DNA binding domain (Oct1-DBD);OCA-B (human (from pBabe-hOct1);, UniProt P14859;Q16633 280-438;1-256, |)
Experiment: EMSA; OCA-B supershifts Oct1-DBD; EMSA: 0.6X buffer D (1X: 20 mM HEPES, 100 mM KCl, 1 mM DTT), 50 ng/ul poly-dI/dC, 1 ug/ul BSA, on ice 15 min, 6% native PAGE in 0.5X TBE; probe 50 nM (1 nM for)
Details: protein: recombinant;recombinant; tags: His (pET28a);C-terminal twinstrep and FLAG; copies: 1;1; blunt

Oct1 DNA binding domain (Oct1-DBD);OCA-B, sequence (P14859 280-438, chain 1 of 2): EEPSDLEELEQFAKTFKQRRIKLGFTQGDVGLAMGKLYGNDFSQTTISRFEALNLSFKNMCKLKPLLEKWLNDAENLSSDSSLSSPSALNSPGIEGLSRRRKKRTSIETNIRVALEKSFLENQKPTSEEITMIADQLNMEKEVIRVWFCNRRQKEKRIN
Oct1 DNA binding domain (Oct1-DBD);OCA-B, sequence (Q16633 whole entry, chain 2 of 2, the tested form may be a part): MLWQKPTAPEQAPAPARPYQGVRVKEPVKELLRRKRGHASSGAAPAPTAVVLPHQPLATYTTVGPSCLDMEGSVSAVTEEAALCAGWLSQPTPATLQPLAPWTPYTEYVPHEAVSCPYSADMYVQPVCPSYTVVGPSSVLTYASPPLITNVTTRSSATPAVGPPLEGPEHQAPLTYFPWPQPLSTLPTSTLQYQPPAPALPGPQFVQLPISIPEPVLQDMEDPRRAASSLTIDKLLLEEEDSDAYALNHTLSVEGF

B1: RHS6-Cy5 (dsDNA)
DNA 1: CACCATGCAAAGGATGTGCGCGGACTCCCTTCCATTTGCTGGCCTCTTATCTGATA
DNA 2: TATCAGATAAGAGGCCAGCAAATGGAAGGGAGTCCGCGCACATCCTTTGCATGGTG
  binding result: binds
